Measurements taken from US10934529B2, “Three dimensional hydrogels for culturing organoids” (Ecole Polytechnique Fèdèrale de Lausanne, priority 2015, dated 2021).
“Also recorded” adds a separate entry of the source.

System: intestinal stem cells (ISCs)
Assay: ISC colony formation efficiency / ISC expansion in hydrogels
Format: cell-based, mouse
Details: PEG-RGD, Wnt3a-containing medium
Method: Freshly isolated crypts or single cells from dissociated colonies were added to the Matrigel or hydrogels precursor solution and cast in 20-μL droplets at the bottom of wells in 24-well plate. […] For single cell culture, thiazovivin (2.5 μM; Stemgent) and Jagged-1 peptide ([…]; Anaspec) was included in the medium during the first two days. Broad spectrum protease inhibitor, GM6001, was added to the medium while embedding the cells in PEG hydrogels. Every two days the growth factors were replenished and the full medium was changed.
To quantify the colony formation efficiency of single embedded ISCs, phase contrast z-stacks spanning the entire thickness of the cell-laden Matrigel or PEG gels were collected (Zeiss Axio Observer Z1) at 5 different locations within the gels. The Cell Counter plugin in ImageJ (NIH) was used to quantify the fraction of cells which had formed colonies at day 4 after seeding. To assess the viability of intestinal tissue fragments embedded in PEG, phase contrast images of the entire gel were collected. The fraction of viable tissues was estimated based upon the epithelial morphology: tissues that featured an epithelial monolayer surrounding a central lumen after 24 h of embedding were deemed viable.

B1: Wnt3a: recombinant Wnt3a (protein, UniProt P56704 19-352, looked up)
Protein Wnt-3a: SYPIWWSLAVGPQYSSLGSQPILCASIPGLVPKQLRFCRNYVEIMPSVAEGIKIGIQECQHQFRGRRWNCTTVHDSLAIFGPVLDKATRESAFVHAIASAGVAFAVTRSCAEGTAAICGCSSRHQGSPGKGWKWGGCSEDIEFGGMVSREFADARENRPDARSAMNRHNNEAGRQAIASHMHLKCKCHGLSGSCEVKTCWWSQPDFRAIGDFLKDKYDSASEMVVEKHRESRGWVETLRPRYTYFKVPTERDLVYYEASPNFCEPNPETGSFGTRDRTCNVSSHGIDGCDLLCCGRGHNARAERRREKCRCVFHWCCYVSCQECTRVYDVHTCK
ISC culture with Wnt3a instead of CHIR99021 and valproic acid: successfully cultured; also recorded: can successfully replace CHIR99021 and VPA
